The target in assay [1] is Staphylococcus aureus Cas9, wild-type (Staphylococcus aureus) (UniProt J7RUA5). The assay can be described thus: cell-based or functional assay.
In assay [2] the target is Streptococcus pyogenes Cas9, wild-type (Streptococcus pyogenes) (UniProt Q99ZW2). Nature of the assay: cell-based or functional assay.
UniProt Q99ZW2, sequence (Q99ZW2 whole entry): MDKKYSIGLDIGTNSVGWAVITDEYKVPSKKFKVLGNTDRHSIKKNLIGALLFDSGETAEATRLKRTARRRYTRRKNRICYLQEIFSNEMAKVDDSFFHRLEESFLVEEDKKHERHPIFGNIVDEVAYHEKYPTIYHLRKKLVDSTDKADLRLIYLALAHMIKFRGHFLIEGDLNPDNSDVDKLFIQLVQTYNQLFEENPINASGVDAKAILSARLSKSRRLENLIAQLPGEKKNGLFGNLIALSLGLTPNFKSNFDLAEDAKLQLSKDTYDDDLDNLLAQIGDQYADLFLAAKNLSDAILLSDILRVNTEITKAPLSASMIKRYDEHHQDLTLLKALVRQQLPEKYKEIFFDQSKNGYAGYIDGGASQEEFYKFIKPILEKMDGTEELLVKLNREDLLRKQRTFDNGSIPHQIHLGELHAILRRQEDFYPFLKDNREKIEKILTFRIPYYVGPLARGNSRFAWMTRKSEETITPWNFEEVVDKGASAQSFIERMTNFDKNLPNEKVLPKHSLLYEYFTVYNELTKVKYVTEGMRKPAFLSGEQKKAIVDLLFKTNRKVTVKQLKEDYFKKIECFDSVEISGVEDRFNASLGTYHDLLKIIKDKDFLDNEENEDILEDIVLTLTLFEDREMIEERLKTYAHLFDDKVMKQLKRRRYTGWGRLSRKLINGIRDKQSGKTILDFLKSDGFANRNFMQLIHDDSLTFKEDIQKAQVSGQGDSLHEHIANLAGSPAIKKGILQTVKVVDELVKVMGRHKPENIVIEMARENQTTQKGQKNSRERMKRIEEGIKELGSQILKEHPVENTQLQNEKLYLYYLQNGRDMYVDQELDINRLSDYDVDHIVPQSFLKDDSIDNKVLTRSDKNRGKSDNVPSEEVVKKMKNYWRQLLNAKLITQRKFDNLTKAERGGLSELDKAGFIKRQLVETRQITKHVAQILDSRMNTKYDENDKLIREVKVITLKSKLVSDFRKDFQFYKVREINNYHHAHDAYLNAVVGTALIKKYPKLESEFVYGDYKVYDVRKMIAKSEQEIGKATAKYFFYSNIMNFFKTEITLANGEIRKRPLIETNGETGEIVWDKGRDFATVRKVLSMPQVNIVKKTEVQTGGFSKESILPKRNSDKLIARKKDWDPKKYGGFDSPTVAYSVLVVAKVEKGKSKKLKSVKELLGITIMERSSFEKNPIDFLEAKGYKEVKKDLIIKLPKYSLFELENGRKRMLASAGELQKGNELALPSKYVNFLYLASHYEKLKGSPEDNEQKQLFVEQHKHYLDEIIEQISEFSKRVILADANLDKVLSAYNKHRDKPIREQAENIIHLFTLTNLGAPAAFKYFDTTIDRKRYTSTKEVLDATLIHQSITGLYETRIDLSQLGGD

UniProt J7RUA5, sequence (J7RUA5 2-1053, tags left off): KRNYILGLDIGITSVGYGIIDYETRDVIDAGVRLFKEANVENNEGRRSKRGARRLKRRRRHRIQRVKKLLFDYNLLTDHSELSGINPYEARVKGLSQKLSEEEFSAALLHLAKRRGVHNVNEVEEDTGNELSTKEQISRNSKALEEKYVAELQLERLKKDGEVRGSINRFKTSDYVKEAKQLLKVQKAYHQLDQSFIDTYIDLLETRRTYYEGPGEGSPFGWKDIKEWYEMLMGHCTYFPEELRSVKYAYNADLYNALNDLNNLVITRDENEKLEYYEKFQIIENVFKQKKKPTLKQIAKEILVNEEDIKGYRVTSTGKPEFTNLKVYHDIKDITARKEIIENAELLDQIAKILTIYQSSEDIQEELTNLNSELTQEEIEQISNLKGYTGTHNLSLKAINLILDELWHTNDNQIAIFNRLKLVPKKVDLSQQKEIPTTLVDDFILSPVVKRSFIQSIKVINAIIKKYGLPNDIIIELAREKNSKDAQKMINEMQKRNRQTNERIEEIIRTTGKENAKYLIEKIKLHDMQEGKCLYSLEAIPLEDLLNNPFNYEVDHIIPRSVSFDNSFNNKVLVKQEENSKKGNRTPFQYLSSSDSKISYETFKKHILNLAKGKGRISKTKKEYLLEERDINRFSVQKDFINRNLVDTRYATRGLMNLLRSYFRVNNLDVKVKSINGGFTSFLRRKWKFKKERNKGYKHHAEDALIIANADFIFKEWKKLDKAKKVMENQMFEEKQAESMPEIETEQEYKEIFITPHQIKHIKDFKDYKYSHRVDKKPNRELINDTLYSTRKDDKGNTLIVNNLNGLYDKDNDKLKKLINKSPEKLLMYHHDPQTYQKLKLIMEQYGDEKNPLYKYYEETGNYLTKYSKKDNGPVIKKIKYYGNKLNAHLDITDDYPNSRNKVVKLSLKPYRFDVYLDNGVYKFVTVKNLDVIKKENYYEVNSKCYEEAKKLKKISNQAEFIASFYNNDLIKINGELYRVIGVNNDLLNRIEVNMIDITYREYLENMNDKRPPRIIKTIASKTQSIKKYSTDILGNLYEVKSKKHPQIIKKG

Consider AcrIIA4 anti-CRISPR protein, for which the figures for the inhibition of Cas9 cleavage activity in the quenched FRET fluorescence assay in assay [1] and in assay [2] were above 10 µM and below 0.03 µM, respectively.

Regarding AcrIIC1 anti-CRISPR protein, the inhibition of Cas9 cleavage activity in the quenched FRET fluorescence assay in assay [1] and in assay [2] was above 10 µM throughout.

(Values after patent US11807877.)
